Results published in patent US20030176334A1 (Scripps Research, published 2003).
Square brackets hold non-standard residues; d marks the D form.

B1: peptide 62880, YTAECKPQVTRGDVF (peptide)
peptide: YTAECKPQVTRGDVF
notes: Linear synthetic peptide; also called VN-derived amino acid residues 35-49
B2: peptide 62503, GVVRNNEALARLS (peptide)
peptide: GVVRNNEALARLS
notes: Linear synthetic peptide; also called αv-derived amino acid residues 655-667
B3: peptide 62411, TRQVVCDLGNPM (peptide)
peptide: TRQVVCDLGNPM
notes: Linear synthetic peptide; also called αv-derived amino acid residues 676-687
B4: peptide 62185, cyclo(RADfV) (peptide)
peptide: cyclo(RAD[dF]V)
modifications: also: TFA salt
notes: also called cyclo(Arg-Ala-Asp-D-Phe-Val)
B5: peptide 62186, cyclo(RaDFV) (peptide)
peptide: cyclo(R[dA]DFV)
modifications: also: TFA salt
notes: TFA salt; also called cyclo(Arg-D-Ala-Asp-Phe-Val)
B6: peptide 62179, cyclo(GRGDfL) (peptide)
peptide: cyclo(GRGD[dF]L)
modifications: also: TFA salt
notes: TFA salt
B7: peptide 62181, cyclo(GrGDFV) (peptide)
peptide: cyclo(G[dR]GDFV)
modifications: also: TFA salt
notes: TFA salt; also called cyclo(-Gly-D-Arg-Gly-Asp-Phe-Val); c-(GrGDFV)
B8: peptide 62175, cyclo(ARGDfL) (peptide)
peptide: cyclo(ARGD[dF]L)
modifications: also: TFA salt
notes: TFA salt
B9: peptide 62502, TDVNGDGRHDL (peptide)
peptide: TDVNGDGRHDL
notes: Linear synthetic peptide; also called αIIb-derived amino acid residues 296-306

Columns and labels:
[1] = molecular target: integrin αvβ3 (vitronectin receptor), purified and immobilized (UniProt P06756); experiment: solid phase receptor binding assay, iodinated MMP-2 on immobilized αvβ3
integrin αvβ3 (vitronectin receptor), purified and immobilized (UniProt P06756), sequence (P06756 31-1048, form in doubt, chain 1 of 2): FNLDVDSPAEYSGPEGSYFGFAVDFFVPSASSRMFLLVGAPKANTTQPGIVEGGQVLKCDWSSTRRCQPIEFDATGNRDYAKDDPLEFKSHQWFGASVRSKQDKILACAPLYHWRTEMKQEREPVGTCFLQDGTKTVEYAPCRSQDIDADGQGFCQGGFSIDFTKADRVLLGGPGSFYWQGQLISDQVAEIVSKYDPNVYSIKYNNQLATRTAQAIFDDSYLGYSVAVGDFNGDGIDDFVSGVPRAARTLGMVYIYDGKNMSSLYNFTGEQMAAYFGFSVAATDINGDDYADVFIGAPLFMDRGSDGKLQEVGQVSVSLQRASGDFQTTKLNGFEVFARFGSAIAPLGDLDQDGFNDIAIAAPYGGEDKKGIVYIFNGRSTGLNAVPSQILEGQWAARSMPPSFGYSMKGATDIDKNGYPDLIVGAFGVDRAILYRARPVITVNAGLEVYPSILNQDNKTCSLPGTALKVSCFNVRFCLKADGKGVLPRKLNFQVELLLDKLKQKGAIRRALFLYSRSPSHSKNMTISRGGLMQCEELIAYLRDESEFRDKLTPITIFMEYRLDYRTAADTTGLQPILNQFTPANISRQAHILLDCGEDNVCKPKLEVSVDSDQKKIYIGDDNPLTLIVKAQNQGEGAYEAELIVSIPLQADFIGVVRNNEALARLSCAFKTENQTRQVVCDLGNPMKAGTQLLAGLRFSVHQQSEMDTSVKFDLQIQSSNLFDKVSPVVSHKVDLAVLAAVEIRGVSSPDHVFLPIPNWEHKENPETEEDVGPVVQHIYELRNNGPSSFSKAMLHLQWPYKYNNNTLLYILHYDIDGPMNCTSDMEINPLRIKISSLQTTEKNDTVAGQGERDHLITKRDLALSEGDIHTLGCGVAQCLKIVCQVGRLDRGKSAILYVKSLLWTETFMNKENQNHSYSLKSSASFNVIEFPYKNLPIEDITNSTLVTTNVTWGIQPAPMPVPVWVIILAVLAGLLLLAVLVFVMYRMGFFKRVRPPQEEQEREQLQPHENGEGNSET
integrin αvβ3 (vitronectin receptor), purified and immobilized (UniProt P06756), sequence (P05106 27-788, form in doubt, chain 2 of 2, further chain): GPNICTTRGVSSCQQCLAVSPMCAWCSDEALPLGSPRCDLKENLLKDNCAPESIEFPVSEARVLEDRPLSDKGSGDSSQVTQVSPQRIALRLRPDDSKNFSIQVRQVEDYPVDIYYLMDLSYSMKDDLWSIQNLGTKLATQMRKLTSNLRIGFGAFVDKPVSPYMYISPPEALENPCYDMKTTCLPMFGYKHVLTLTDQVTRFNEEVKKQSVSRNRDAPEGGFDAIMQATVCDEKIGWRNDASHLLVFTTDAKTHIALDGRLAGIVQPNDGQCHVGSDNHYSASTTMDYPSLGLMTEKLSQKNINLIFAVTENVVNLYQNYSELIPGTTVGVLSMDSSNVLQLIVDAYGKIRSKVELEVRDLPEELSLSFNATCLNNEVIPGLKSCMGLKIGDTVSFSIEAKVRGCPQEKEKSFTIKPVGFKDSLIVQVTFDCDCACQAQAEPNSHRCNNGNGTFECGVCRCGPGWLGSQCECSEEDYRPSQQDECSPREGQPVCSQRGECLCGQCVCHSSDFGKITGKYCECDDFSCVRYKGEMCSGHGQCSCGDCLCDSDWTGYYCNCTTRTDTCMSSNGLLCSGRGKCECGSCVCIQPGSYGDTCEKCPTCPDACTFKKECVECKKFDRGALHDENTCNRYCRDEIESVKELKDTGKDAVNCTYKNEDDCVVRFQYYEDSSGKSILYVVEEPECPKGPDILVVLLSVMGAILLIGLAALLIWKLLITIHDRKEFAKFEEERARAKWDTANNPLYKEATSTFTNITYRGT

[2] = molecular target: integrin αIIbβ3, purified and immobilized (UniProt P08514); experiment: solid phase receptor binding assay, iodinated MMP-2 on immobilized αIIbβ3
[3] = molecular target: T1, integrin αvβ3 (vitronectin receptor), purified and immobilized (UniProt P06756 31-1048; P05106 27-788); experiment: competition, fibrinogen (FG) binding to immobilized αvβ3; individual assay
T1 construct: Purified integrin coated at 50 ng per well; also called αvβ3 receptor
T1 sequence (P06756 31-1048, form in doubt, chain 1 of 2): as the sequence (P06756 31-1048, form in doubt, chain 1 of 2) above
T1 sequence (P05106 27-788, form in doubt, chain 2 of 2): as the sequence (P05106 27-788, form in doubt, chain 2 of 2, further chain) above
Protocol: (§1) Briefly, selected purified integrins were separately immobilized in Titertek microtiter wells at a coating concentration of 50 nanograms (ng) per well. […] After incubation for 18 hours at 4C, nonspecific binding sites on the plate were blocked with 10 milligrams/milliliter (mg/ml) of bovine serum albumin (BSA) in Tris-buffered saline. […] Radiolabeled ligands were used at concentrations of 1 nM and binding was challenged separately with unlabeled synthetic peptides.
(§2) Following a three hour incubation, free ligand was removed by washing and bound ligand was detected by gamma counting.

[4] = molecular target: T1, integrin αvβ3 (vitronectin receptor), …; experiment: competition, vitronectin (VN) binding to immobilized αvβ3; individual assay
Protocol: as §1, §2

[5] = molecular target: T2, integrin αIIbβ3, purified and immobilized (UniProt P08514 32-1039; P05106 27-788); experiment: competition, fibrinogen (FG) binding to immobilized αIIbβ3; individual assay
T2 construct: Purified integrin coated at 50 ng per well; also called α11bβ3
Protocol: as §1, §2

[6] = molecular target: T2, integrin αIIbβ3, purified and …; experiment: competition, vitronectin (VN) binding to immobilized αIIbβ3; individual assay
Protocol: as §1, §2

[7] = molecular target: T1, integrin αvβ3 (vitronectin receptor), …; experiment: competition, 125I-fibrinogen (1 nM) binding to immobilized purified αvβ3, gamma counting; mean of duplicates ± SD
Protocol: as §1, §2

[8] = molecular target: T2, integrin αIIbβ3, purified and …; experiment: competition, 125I-fibrinogen (1 nM) binding to immobilized purified αIIbβ3, gamma counting; mean of duplicates ± SD
Protocol: as §1, §2

| Molecule | IC50 [3] | IC50 [4] | IC50 [6] | IC50 [7] | IC50 [8] | also measured |
| --- | --- | --- | --- | --- | --- | --- |
| MMP-2 (matrix metalloproteinase-2) as used in the solid phase receptor binding assays (enzyme) | – | – | – | – | – | bound cpm [1]: 300 cpm; bound cpm [2]: 10 CPM |
| B1 | < 0.1 µM | 0.5 µM | 0.98 µM | – | – | IC50 [5]: 4.2 µM |
| B2 | > 100 µM | > 100 µM | > 100 µM | – | – | – |
| B3 | > 100 µM | > 100 µM | > 100 µM | – | – | – |
| B4 | – | – | – | 0.885 µM | 100 µM | – |
| B5 | – | – | – | 57.5 µM | 100 µM | – |
| B6 | – | – | – | 0.395 µM | 0.055 µM | – |
| B7 | – | – | – | 1.96 µM | 15 µM | – |
| B8 | – | – | – | 1.05 µM | 0.63 µM | – |
| B9 | > 100 µM | > 100 µM | 5 µM | – | – | IC50 [5]: 90 µM |
